Results published in paper PMC7437921.

What was measured:
Assay in all cases: FRET or BRET
[1] = molecular target: CXCR4(Δ1–15), HA-free (tagless) (human) (UniProt P61073)
[2] = molecular target: CXCR4(Δ1–25), HA-free (tagless) (human) (UniProt P61073)
CXCR4(R30Q) (human) = CXCR4(R30Q) (human) (UniProt P61073)
CXCR4(D187A) (human) = CXCR4(D187A) (human) (UniProt P61073)

## renilla GFP fused to mini-Gαsi
[1]
  efficacy (Emax) remaining, % of WT CXCR4: 33%
[2]
  efficacy (Emax) remaining, % of WT CXCR4: 23%
CXCR4(R30Q) (human)
  decrease in efficacy (Emax) vs WT CXCR4: 30%
CXCR4(D187A) (human)
  efficacy (Emax) remaining, % of WT CXCR4: 30%
